Test results from the supplement of paper PMC5998384.

Assays:
HeLa Kyoto [1] = experiment: solubility in G1/S (NP-40 vs SDS abundance) (log2 ratio); higher = more soluble; conditions: cell cycle stage: G1/S
HeLa Kyoto [2] = experiment: melting temperature (median over replicates), in situ; higher = more thermally stable
HeLa Kyoto [3] = experiment: solubility change mitosis vs G1/S (difference of NP-40 vs SDS log2 ratios) (log2 ratio difference); higher = more soluble in mitosis
HeLa Kyoto [4] = experiment: thermal stability score vs G1/S (z-score of summed log2 fold changes over temperatures); higher = more thermally stable than in G1/S
[5] = cell cycle stage: early G1 (4.5 h after nocodazole release)
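Wherever melting temperature (median over replicates), in situ is given: HeLa Kyoto cells synchronized by double thymidine or nocodazole block, proteins quantified by TMT10plex mass spectrometry, three independent biological replicates.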
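Wherever solubility change mitosis vs G1/S (difference of NP-40 vs SDS log2 ratios) is given: synchronized HeLa Kyoto cells (double thymidine block for G1/S, nocodazole release for mitosis), protein amounts in NP-40 versus SDS lysates quantified by mass spectrometry, three biological replicates.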
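Wherever solubility in G1/S (NP-40 vs SDS abundance) is given: HeLa Kyoto cells arrested at G1/S by double thymidine block, proteins quantified by TMT10plex mass spectrometry in mild NP-40 versus SDS extracts, three biological replicates.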
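Wherever thermal stability score vs G1/S (z-score of summed log2 fold changes over temperatures) is given: synchronized HeLa Kyoto cells, proteins quantified by TMT10plex mass spectrometry, three biological replicates, mitosis taken 0.5 h after nocodazole release, G1/S directly after double thymidine block.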

Sequence	solubility in G1/S (log2) (HeLa Kyoto [1])	melting temperature (HeLa Kyoto [2]; cell cycle stage: G1/S)	melting temperature (HeLa Kyoto [2]; cell cycle stage: mitosis)	solubility change mitosis (log2) (HeLa Kyoto [3])	thermal stability score (HeLa Kyoto [4]; [5])	thermal stability score (HeLa Kyoto [4]; cell cycle stage: mitosis)
MGKEQELLEAARTGHLPAVEKLLSGKRLSSGFGGGGGGGSGGGGGGSGGGGGGLGSSSHPLSSLLSMWRGPNVNCVDSTGYTPLHHAALNGHKDVVEVLLRNDALTNVADSKGCYPLHLAAWKGDAQIVRLLIHQGPSHTRVNEQNNDNETALHCAAQYGHTEVVKVLLEELTDPTMRNNKFETPLDLAALYGRLEVVKMLLNAHPNLLSCNTKKHTPLHLAARNGHKAVVQVLLDAGMDSNYQTEMGSALHEAALFGKTDVVQILLAAGTDVNIKDNHGLTALDTVRELPSQKSQQIAALIEDHMTGKRSTKEVDKTPPPQPPLISSMDSISQKSQGDVEKAVTELIIDFDANAEEEGPYEALYNAISCHSLDSMASGRSSDQDSTNKEAEAAGVKPAGVRPRERPPPPAKPPPDEEEEDHIDKKYFPLTASEVLSMRPRIHGSAAREEDEHPYELLLTAETKKVVLVDGKTKDHRRSSSSRSQDSAEGQDGQVPEQFSGLLHGSSPVCEVGQDPFQLLCTAGQSHPDGSPQQGACHKASMQLEETGVHAPGASQPSALDQSKRVGYLTGLPTTNSRSHPETLTHTASPHPGGAEEGDRSGARSRAPPTSKPKAELKLSRSLSKSDSDLLTCSPTEDATMGSRSESLSNCSIGKKRLEKSPSFASEWDEIEKIMSSIGEGIDFSQERQKISGLRTLEQSVGEWLESIGLQQYESKLLLNGFDDVHFLGSNVMEEQDLRDIGISDPQHRRKLLQAARSLPKVKALGYDGNSPPSVPSWLDSLGLQDYVHSFLSSGYSSIDTVKNLWELELVNVLKVQLLGHRKRIIASLADRPYEEPPQKPPRFSQLRCQDLLSQTSSPLSQNDSCTGRSADLLLPPGDTGRRRHDSLHDPAAPSRAERFRIQEEHREAKLTLRPPSLAAPYAPVQSWQHQPEKLIFESCGYEANYLGSMLIKDLRGTESTQDACAKMRKSTEHMKKIPTIILSITYKGVKFIDASNKNVIAEHEIRNISCAAQDPEDLCTFAYITKDLQTSHHYCHVFSTVDVNLTYEIILTLGQAFEVAYQLALQAQKSRATGASAAEMIETKSSKPVPKPRVGVRKSALEPPDMDQDAQSHASVSWVVDPKPDSKRSLSTN [ANKS1A]	0.191	49.9 °C	50.1 °C	-0.0097	0.94	1.51
MGKKGKKEKKGRGAEKTAAKMEKKVSKRSRKEEEDLEALIAHFQTLDAKRTQTVELPCPPPSPRLNASLSVHPEKDELILFGGEYFNGQKTFLYNELYVYNTRKDTWTKVDIPSPPPRRCAHQAVVVPQGGGQLWVFGGEFASPNGEQFYHYKDLWVLHLATKTWEQVKSTGGPSGRSGHRMVAWKRQLILFGGFHESTRDYIYYNDVYAFNLDTFTWSKLSPSGTGPTPRSGCQMSVTPQGGIVVYGGYSKQRVKKDVDKGTRHSDMFLLKPEDGREDKWVWTRMNPSGVKPTPRSGFSVAMAPNHQTLFFGGVCDEEEEESLSGEFFNDLYFYDATRNRWFEGQLKGPKSEKKKRRRGRKEEPEGGSRPACGGAGTQGPVQLVKEVVAEDGTVVTIKQVLTAPGSAGQPRSEDEDSLEEAGSPAPGPCPRSNAMLAVKHGVLYVYGGMFEAGDRQVTLSDLHCLDLHRMEAWKALVEMDPETQEWLEETDSEEDSEEVEGAEGGVDDEDSGEESGAED [KLHDC4]	-0.239	49.7 °C	48.9 °C	-0.00461	-0.0688	-0.148
MGKKYKNIVLLKGLEVINDYHFRMVKSLLSNDLKLNLKMREEYDKIQIADLMEEKFRGDAGLGKLIKIFEDIPTLEDLAETLKKEKLKVKGPALSRKRKKEVDATSPAPSTSSTVKTEGAEATPGAQKRKKSTKEKAGPKGSKVSEEQTQPPSPAGAGMSTAMGRSPSPKTSLSAPPNSSSTENPKTVAKCQVTPRRNVLQKRPVIVKVLSTTKPFEYETPEMEKKIMFHATVATQTQFFHVKVLNTSLKEKFNGKKIIIISDYLEYDSLLEVNEESTVSEAGPNQTFEVPNKIINRAKETLKIDILHKQASGNIVYGVFMLHKKTVNQKTTIYEIQDDRGKMDVVGTGQCHNIPCEEGDKLQLFCFRLRKKNQMSKLISEMHSFIQIKKKTNPRNNDPKSMKLPQEQRQLPYPSEASTTFPESHLRTPQMPPTTPSSSFFTKKSEDTISKMNDFMRMQILKEGSHFPGPFMTSIGPAESHPHTPQMPPSTPSSSFLTTKSEDTISKMNDFMRMQILKEGSHFPGPFMTSIGPAESHPHTPQMPPSTPSSSFLTTLKPRLKTEPEEVSIEDSAQSDLKEVMVLNATESFVYEPKEQKKMFHATVATENEVFRVKVFNIDLKEKFTPKKIIAIANYVCRNGFLEVYPFTLVADVNADRNMEIPKGLIRSASVTPKINQLCSQTKGSFVNGVFEVHKKNVRGEFTYYEIQDNTGKMEVVVHGRLTTINCEEGDKLKLTCFELAPKSGNTGELRSVIHSHIKVIKTRKNKKDILNPDSSMETSPDFFF [IFI16]	-0.293	46.8 °C	49.1 °C	0.318	3.09	5.43
MGKLRRRYNIKGRQQAGPGPSKGPPEPPPVQLELEDKDTLKGVDASNALVLPGKKKKKTKAPPLSKKEKKPLTKKEKKVLQKILEQKEKKSQRAEMLQKLSEVQASEAEMRLFYTTSKLGTGNRMYHTKEKADEVVAPGQEKISSLSGAHRKRRRWPSAEEEEEEEEESESELEEESELDEDPAAEPAEAGVGTTVAPLPPAPAPSSQPVPAGMTVPPPPAAAPPLPRALAKPAVFIPVNRSPEMQEERLKLPILSEEQVIMEAVAEHPIVIVCGETGSGKTTQVPQFLYEAGFSSEDSIIGVTEPRRVAAVAMSQRVAKEMNLSQRVVSYQIRYEGNVTEETRIKFMTDGVLLKEIQKDFLLLRYKVVIIDEAHERSVYTDILIGLLSRIVTLRAKRNLPLKLLIMSATLRVEDFTQNPRLFAKPPPVIKVESRQFPVTVHFNKRTPLEDYSGECFRKVCKIHRMLPAGGILVFLTGQAEVHALCRRLRKAFPPSRARPQEKDDDQKDSVEEMRKFKKSRARAKKARAEVLPQINLDHYSVLPAGEGDEDREAEVDEEEGALDSDLDLDLGDGGQDGGEQPDASLPLHVLPLYSLLAPEKQAQVFKPPPEGTRLCVVATNVAETSLTIPGIKYVVDCGKVKKRYYDRVTGVSSFRVTWVSQASADQRAGRAGRTEPGHCYRLYSSAVFGDFEQFPPPEITRRPVEDLILQMKALNVEKVINFPFPTPPSVEALLAAEELLIALGALQPPQKAERVKQLQENRLSCPITALGRTMATFPVAPRYAKMLALSRQHGCLPYAITIVASMTVRELFEELDRPAASDEELTRLKSKRARVAQMKRTWAGQGASLKLGDLMVLLGAVGACEYASCTPQFCEANGLRYKAMMEIRRLRGQLTTAVNAVCPEAELFVDPKMQPPTESQVTYLRQIVTAGLGDHLARRVQSEEMLEDKWRNAYKTPLLDDPVFIHPSSVLFKELPEFVVYQEIVETTKMYMKGVSSVEVQWIPALLPSYCQFDKPLEEPAPTYCPERGRVLCHRASVFYRVGWPLPAIEVDFPEGIDRYKHFARFLLEGQVFRKLASYRSCLLSSPGTMLKTWARLQPRTESLLRALVAEKADCHEALLAAWKKNPKYLLAEYCEWLPQAMHPDIEKAWPPTTVH [DHX37]	-1	50.3 °C	–	0.635	0.32	0.922
MGKRQHQKDKMYITCAEYTHFYGGKKPDLPQTNFRRLPFDHCSLSLQPFVYPVCTPDGIVFDLLNIVPWLKKYGTNPSNGEKLDGRSLIKLNFSKNSEGKYHCPVLFTVFTNNTHIVAVRTTGNVYAYEAVEQLNIKAKNFRDLLTDEPFSRQDIITLQDPTNLDKFNVSNFYHVKNNMKIIDPDEEKAKQDPSYYLKNTNAETRETLQELYKEFKGDEILAATMKAPEKKKVDKLNAAHYSTGKVSASFTSTAMVPETTHEAAAIDEDVLRYQFVKKKGYVRLHTNKGDLNLELHCDLTPKTCENFIRLCKKHYYDGTIFHRSIRNFVIQGGDPTGTGTGGESYWGKPFKDEFRPNLSHTGRGILSMANSGPNSNRSQFFITFRSCAYLDKKHTIFGRVVGGFDVLTAMENVESDPKTDRPKEEIRIDATTVFVDPYEEADAQIAQERKTQLKVAPETKVKSSQPQAGSQGPQTFRQGVGKYINPAATKRAAEEEPSTSATVPMSKKKPSRGFGDFSSW [PPIL2]	0.00272	47.5 °C	48.4 °C	-0.019	0.984	1.06
MGKSESQMDITDINTPKPKKKQRWTPLEISLSVLVLLLTIIAVTMIALYATYDDGICKSSDCIKSAARLIQNMDATTEPCTDFFKYACGGWLKRNVIPETSSRYGNFDILRDELEVVLKDVLQEPKTEDIVAVQKAKALYRSCINESAIDSRGGEPLLKLLPDIYGWPVATENWEQKYGASWTAEKAIAQLNSKYGKKVLINLFVGTDDKNSVNHVIHIDQPRLGLPSRDYYECTGIYKEACTAYVDFMISVARLIRQEERLPIDENQLALEMNKVMELEKEIANATAKPEDRNDPMLLYNKMTLAQIQNNFSLEINGKPFSWLNFTNEIMSTVNISITNEEDVVVYAPEYLTKLKPILTKYSARDLQNLMSWRFIMDLVSSLSRTYKESRNAFRKALYGTTSETATWRRCANYVNGNMENAVGRLYVEAAFAGESKHVVEDLIAQIREVFIQTLDDLTWMDAETKKRAEEKALAIKERIGYPDDIVSNDNKLNNEYLELNYKEDEYFENIIQNLKFSQSKQLKKLREKVDKDEWISGAAVVNAFYSSGRNQIVFPAGILQPPFFSAQQSNSLNYGGIGMVIGHEITHGFDDNGRNFNKDGDLVDWWTQQSASNFKEQSQCMVYQYGNFSWDLAGGQHLNGINTLGENIADNGGLGQAYRAYQNYIKKNGEEKLLPGLDLNHKQLFFLNFAQVWCGTYRPEYAVNSIKTDVHSPGNFRIIGTLQNSAEFSEAFHCRKNSYMNPEKKCRVW [MME]	-0.0691	53 °C	55.9 °C	-0.0403	-0.835	-0.832
MGKVNVAKLRYMSRDDFRVLTAVEMGMKNHEIVPGSLIASIASLKHGGCNKVLRELVKHKLIAWERTKTVQGYRLTNAGYDYLALKTLSSRQVVESVGNQMGVGKESDIYIVANEEGQQFALKLHRLGRTSFRNLKNKRDYHKHRHNVSWLYLSRLSAMKEFAYMKALYERKFPVPKPIDYNRHAVVMELINGYPLCQIHHVEDPASVYDEAMELIVKLANHGLIHGDFNEFNLILDESDHITMIDFPQMVSTSHPNAEWYFDRDVKCIKDFFMKRFSYESELFPTFKDIRREDTLDVEVSASGYTKEMQADDELLHPLGPDDKNIETKEGSEFSFSDGEVAEKAEVYGSENESERNCLEESEGCYCRSSGDPEQIKEDSLSEESADARSFEMTEFNQALEEIKGQVVENNSVTEFSEEKNRTENYNRQDGQRVQGGVPAGSDEYEDECPHLIALSSLNREFRPFRDEENVGAMNQYRTRTLSITSSGSAVSCSTIPPELVKQKVKRQLTKQQKSAVRRRLQKGEANIFTKQRRENMQNIKSSLEAASFWGE [RIOK2]	-0.263	52.5 °C	52 °C	-0.21	-0.571	-0.171
